In patent publication US20110263454A1, “Methods of Identifying Functional Characteristics of Promoters, Transcription Modifying Proteins and Transcription Modulating Agents” (Salk Institute for Biological Studies, priority 2008, published 2011):

B1: SHP: Small Heterodimer Partner (NR0B2), cDNA driver (protein, UniProt Q15466 1-257, looked up)
Nuclear receptor subfamily 0 …: MSTSQPGACPCQGAASRPAILYALLSSSLKAVPRPRSRCLCRQHRPVQLCAPHRTCREALDVLAKTVAFLRNLPSFWQLPPQDQRRLLQGCWGPLFLLGLAQDAVTFEVAEAPVPSILKKILLEEPSSSGGSGQLPDRPQPSLAAVQWLQCCLESFWSLELSPKEYACLKGTILFNPDVPGLQAASHIGHLQQEAHWVLCEVLEPWCPAAQGRLTRVLLTASTLKSIPTSLLGDLFFRPIIGDVDIAGLLGDMLLLR
B2: NR4a3: NR4a3 (NR4A3; NOR1), nuclear hormone receptor cDNA driver (protein, UniProt Q92570 1-626, looked up)
Nuclear receptor subfamily 4 …: MPCVQAQYSPSPPGSSYAAQTYSSEYTTEIMNPDYTKLTMDLGSTEITATATTSLPSISTFVEGYSSNYELKPSCVYQMQRPLIKVEEGRAPSYHHHHHHHHHHHHHHQQQHQQPSIPPASSPEDEVLPSTSMYFKQSPPSTPTTPAFPPQAGALWDEALPSAPGCIAPGPLLDPPMKAVPTVAGARFPLFHFKPSPPHPPAPSPAGGHHLGYDPTAAAALSLPLGAAAAAGSQAAALESHPYGLPLAKRAAPLAFPPLGLTPSPTASSLLGESPSLPSPPSRSSSSGEGTCAVCGDNAACQHYGVRTCEGCKGFFKRTVQKNAKYVCLANKNCPVDKRRRNRCQYCRFQKCLSVGMVKEVVRTDSLKGRRGRLPSKPKSPLQQEPSQPSPPSPPICMMNALVRALTDSTPRDLDYSRYCPTDQAAAGTDAEHVQQFYNLLTASIDVSRSWAEKIPGFTDLPKEDQTLLIESAFLELFVLRLSIRSNTAEDKFVFCNGLVLHRLQCLRGFGEWLDSIKDFSLNLQSLNLDIQALACLSALSMITERHGLKEPKRVEELCNKITSSLKDHQSKGQALEPTESKVLGALVELRKICTLGLQRIFYLKLEDLVSPPSIIDKLFLDTLPF
B3: NR4a2: NR4a2 (NR4A2; NURR1), nuclear hormone receptor cDNA driver (protein, UniProt P43354 1-598, looked up)
Nuclear receptor subfamily 4 …: MPCVQAQYGSSPQGASPASQSYSYHSSGEYSSDFLTPEFVKFSMDLTNTEITATTSLPSFSTFMDNYSTGYDVKPPCLYQMPLSGQQSSIKVEDIQMHNYQQHSHLPPQSEEMMPHSGSVYYKPSSPPTPTTPGFQVQHSPMWDDPGSLHNFHQNYVATTHMIEQRKTPVSRLSLFSFKQSPPGTPVSSCQMRFDGPLHVPMNPEPAGSHHVVDGQTFAVPNPIRKPASMGFPGLQIGHASQLLDTQVPSPPSRGSPSNEGLCAVCGDNAACQHYGVRTCEGCKGFFKRTVQKNAKYVCLANKNCPVDKRRRNRCQYCRFQKCLAVGMVKEVVRTDSLKGRRGRLPSKPKSPQEPSPPSPPVSLISALVRAHVDSNPAMTSLDYSRFQANPDYQMSGDDTQHIQQFYDLLTGSMEIIRGWAEKIPGFADLPKADQDLLFESAFLELFVLRLAYRSNPVEGKLIFCNGVVLHRLQCVRGFGEWIDSIVEFSSNLQNMNIDISAFSCIAALAMVTERHGLKEPKRVEELQNKIVNCLKDHVTFNNGGLNRPNYLSKLLGKLPELRTLCTQGLQRIFYLKLEDLVPPPAIIDKLFLDTLPF
B4: DAX-1: DAX1 (NR0B1), cDNA driver (protein, UniProt P51843 1-470, looked up)
Nuclear receptor subfamily 0 …: MAGENHQWQGSILYNMLMSAKQTRAAPEAPETRLVDQCWGCSCGDEPGVGREGLLGGRNVALLYRCCFCGKDHPRQGSILYSMLTSAKQTYAAPKAPEATLGPCWGCSCGSDPGVGRAGLPGGRPVALLYRCCFCGEDHPRQGSILYSLLTSSKQTHVAPAAPEARPGGAWWDRSYFAQRPGGKEALPGGRATALLYRCCFCGEDHPQQGSTLYCVPTSTNQAQAAPEERPRAPWWDTSSGALRPVALKSPQVVCEAASAGLLKTLRFVKYLPCFQVLPLDQQLVLVRNCWASLLMLELAQDRLQFETVEVSEPSMLQKILTTRRRETGGNEPLPVPTLQHHLAPPAEARKVPSASQVQAIKCFLSKCWSLNISTKEYAYLKGTVLFNPDVPGLQCVKYIQGLQWGTQQILSEHTRMTHQGPHDRFIELNSTLFLLRFINANVIAELFFRPIIGTVSMDDMMLEMLCTKI
B5: GCNF: Germ Cell Nuclear Factor (NR6A1, GCNF1), cDNA driver (protein, UniProt Q15406 1-480, looked up)
Nuclear receptor subfamily 6 …: MERDEPPPSGGGGGGGSAGFLEPPAALPPPPRNGFCQDELAELDPGTISVSDDRAEQRTCLICGDRATGLHYGIISCEGCKGFFKRSICNKRVYRCSRDKNCVMSRKQRNRCQYCRLLKCLQMGMNRKAIREDGMPGGRNKSIGPVQISEEEIERIMSGQEFEEEANHWSNHGDSDHSSPGNRASESNQPSPGSTLSSSRSVELNGFMAFREQYMGMSVPPHYQYIPHLFSYSGHSPLLPQQARSLDPQSYSLIHQLLSAEDLEPLGTPMLIEDGYAVTQAELFALLCRLADELLFRQIAWIKKLPFFCELSIKDYTCLLSSTWQELILLSSLTVYSKQIFGELADVTAKYSPSDEELHRFSDEGMEVIERLIYLYHKFHQLKVSNEEYACMKAINFLNQDIRGLTSASQLEQLNKRYWYICQDFTEYKYTHQPNRFPDLMMCLPEIRYIAGKMVNVPLEQLPLLFKVVLHSCKTSVGKE

These molecules were tested on mGhrelin promoter (assay: NHR-promoter luciferase screen, mGhrelin promoter). Details: Table 8; mGhrelin.
Format: cell-based, mouse
How it was run: (§1)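 CV-1 cells were co-transfected with 50 ng NHR (homodimer or NHR/RXR heterodimer), 100 ng promoter-luciferase construct and 50 ng LacZ. Luciferase was normalized to LacZ and to a no-NHR/no-ligand control.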

Row | Molecule | Luc. act., normalized to lacZ | Normalized Luc. act., normalized to control
1 | B1 | 56.5 | 1.1
2 | B2 | 29.4 | 0.6
3 | B3 | 31.5 | 0.6
4 | B4 | 63.3 | 1.2
5 | B5 | 50.7 | 1.0

Same assay, conditions: Table 6d; luciferase activity relative to control (control = 1.00)

Row | Molecule | Results of assays of transcription factor (+/- ligand) with mGhrelin
6 | B1 | 1.08
7 | B2 | 0.56
8 | B3 | 0.60
9 | B4 | 1.21
10 | B5 | 0.97

The molecules below were run on hMDR1 promoter (assay: NHR-promoter luciferase screen, hMDR1 promoter). Details: MDR1 promoter; HR/ligand component.
Format: cell-based, human
How it was run: as §1

Row | Molecule | Luc. act., normalized to lacZ | Normalized Luc. act., normalized to control
11 | B1 | 0.3 | 0.8
12 | B2 | 0.2 | 0.7
13 | B3 | 0.2 | 0.7
14 | B4 | 0.3 | 0.9
15 | B5 | 0.3 | 0.8

Same assay, conditions: transcription factor +/- ligand; control = 1.00

Row | Molecule | hMDR1 promoter reporter activity
16 | B1 | 0.84
17 | B2 | 0.65
18 | B3 | 0.74
19 | B4 | 0.89
20 | B5 | 0.83

Each molecule was assayed on hPOMC promoter (assay: NHR-promoter luciferase screen, hPOMC promoter). Details: hPOMC promoter; HR/ligand component.
Format: cell-based, human
How it was run: as §1

Row | Molecule | Luc. act., normalized to lacZ | Normalized Luc. act., normalized to control
21 | B1 | 1.9 | 0.4
22 | B2 | 2.7 | 0.6
23 | B3 | 2.1 | 0.5
24 | B4 | 2.7 | 0.6
25 | B5 | – | 0.0

Same assay, conditions: transcription factor +/- ligand; control = 1.00

Row | Molecule | hPOMC promoter reporter activity
26 | B1 | 0.43
27 | B2 | 0.63
28 | B3 | 0.49
29 | B4 | 0.63
30 | B5 | 0.00

Each molecule was assayed on mUCP3 promoter (assay: NHR-promoter luciferase screen, mUCP3 promoter). Details: mUCP3 promoter reporter; HR without or with its ligand; relative to control.
Format: cell-based, mouse
How it was run: as §1

Row | Molecule | Normalized Luc. act., normalized to control
31 | B1 | 1.1
32 | B2 | 1.2
33 | B3 | 1.0
34 | B4 | 1.3
35 | B5 | 1.0

Same assay, conditions: mUCP3 promoter reporter; hormone receptor (HR) without or with its ligand

Row | Molecule | Luc. act., normalized to lacZ
36 | B1 | 0.77
37 | B2 | 0.81
38 | B3 | 0.68
39 | B4 | 0.89
40 | B5 | 0.66

Same assay, conditions: transcription factor +/- ligand; control = 1.00

Row | Molecule | mUCP3 promoter reporter activity
41 | B1 | 1.15
42 | B2 | 1.19
43 | B3 | 1.01
44 | B4 | 1.31
45 | B5 | 0.98

Each molecule was assayed on mLeptin promoter (assay: NHR-promoter luciferase screen, mLeptin promoter). Details: Table 7; mLeptin.
Format: cell-based, mouse
How it was run: as §1

Row | Molecule | Luc. act., normalized to lacZ | Normalized Luc. act., normalized to control
46 | B1 | 2.7 | 0.9
47 | B2 | 1.8 | 0.6
48 | B3 | 2.1 | 0.7
49 | B4 | 2.5 | 0.9
50 | B5 | 1.5 | 0.5

Same assay, conditions: Table 6d; luciferase activity relative to control (control = 1.00)

Row | Molecule | Results of assays of transcription factor (+/- ligand) with mLeptin
51 | B1 | 0.91
52 | B2 | 0.62
53 | B3 | 0.71
54 | B4 | 0.87
55 | B5 | 0.50
